Results from article PMC7383231, “Pseudo-RNA-Binding Domains Mediate RNA Structure Specificity in Upstream of N-Ras”.

Columns and labels:
[1] = biological target: T1, Unr full-length (dUnr) (Drosophila melanogaster, UniProt B7Z0E2 1-1039); test: EMSA; EMSA: 20 mM HEPES/NaOH pH 7.5, 50 mM NaCl, 10% glycerol, 2 mM DTT, 1 h at 4 C, ~25 nM RNA; NMR: 20 mM NaP pH 6.5, 50 mM NaCl, 1 mM DTT (10 mM for CSD12), 10% D2O, 298 K; details: protein: recombinant; tags: His6; label: 3' pCp-Cy5; stem loops
T1 sequence: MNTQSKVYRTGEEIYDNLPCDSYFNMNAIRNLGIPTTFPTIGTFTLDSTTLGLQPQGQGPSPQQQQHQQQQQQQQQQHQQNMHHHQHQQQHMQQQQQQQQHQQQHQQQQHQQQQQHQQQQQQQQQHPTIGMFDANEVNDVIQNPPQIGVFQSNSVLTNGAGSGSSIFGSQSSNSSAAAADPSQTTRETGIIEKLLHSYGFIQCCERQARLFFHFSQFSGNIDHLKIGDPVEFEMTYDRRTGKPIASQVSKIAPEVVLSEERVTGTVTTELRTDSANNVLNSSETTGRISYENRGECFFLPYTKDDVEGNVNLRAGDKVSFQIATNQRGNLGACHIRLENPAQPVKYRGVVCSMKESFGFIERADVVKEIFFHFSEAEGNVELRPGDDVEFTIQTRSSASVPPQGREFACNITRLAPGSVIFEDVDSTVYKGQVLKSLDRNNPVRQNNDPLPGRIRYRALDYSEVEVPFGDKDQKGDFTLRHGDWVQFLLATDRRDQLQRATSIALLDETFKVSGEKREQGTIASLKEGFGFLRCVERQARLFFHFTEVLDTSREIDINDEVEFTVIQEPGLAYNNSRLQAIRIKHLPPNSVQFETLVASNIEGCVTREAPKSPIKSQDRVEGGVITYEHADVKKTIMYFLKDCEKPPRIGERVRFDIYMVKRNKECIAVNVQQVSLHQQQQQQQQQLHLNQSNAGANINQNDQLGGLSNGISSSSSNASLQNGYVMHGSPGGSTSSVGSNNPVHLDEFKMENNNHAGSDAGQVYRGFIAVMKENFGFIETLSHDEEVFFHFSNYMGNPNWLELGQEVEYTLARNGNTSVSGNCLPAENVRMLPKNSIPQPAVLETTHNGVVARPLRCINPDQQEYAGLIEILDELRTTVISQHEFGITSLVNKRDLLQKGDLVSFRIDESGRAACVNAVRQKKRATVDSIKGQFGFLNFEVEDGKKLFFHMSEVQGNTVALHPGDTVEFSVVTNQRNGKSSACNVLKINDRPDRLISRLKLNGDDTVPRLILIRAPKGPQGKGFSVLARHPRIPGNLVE

[2] = biological target: T2, dUnr CSD789 (Drosophila melanogaster, UniProt B7Z0E2 756-990); test: as above; details: protein: recombinant; tags: tag cleaved with TEV; label: 3' pCp-Cy5; stem loops
T2 sequence: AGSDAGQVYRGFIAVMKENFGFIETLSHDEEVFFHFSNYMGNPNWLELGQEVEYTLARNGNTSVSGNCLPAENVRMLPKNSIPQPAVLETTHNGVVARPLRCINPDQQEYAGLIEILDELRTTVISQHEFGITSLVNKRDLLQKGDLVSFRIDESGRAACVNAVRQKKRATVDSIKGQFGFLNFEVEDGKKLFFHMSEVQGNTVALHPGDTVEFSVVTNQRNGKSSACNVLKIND

[3] = biological target: T3, dUnr CSD456 (Drosophila melanogaster, UniProt B7Z0E2 424-677); test: as above; details: protein: recombinant; tags: tag cleaved with TEV; label: 3' pCp-Cy5; stem loops
T3 sequence: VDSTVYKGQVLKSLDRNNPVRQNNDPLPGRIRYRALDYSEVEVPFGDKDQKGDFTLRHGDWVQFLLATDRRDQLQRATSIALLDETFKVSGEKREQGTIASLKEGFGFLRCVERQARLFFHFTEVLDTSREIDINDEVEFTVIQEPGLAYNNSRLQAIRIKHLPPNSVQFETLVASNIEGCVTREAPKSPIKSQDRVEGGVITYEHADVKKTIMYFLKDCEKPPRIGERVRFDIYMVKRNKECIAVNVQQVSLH

[4] = biological target: T4, dUnr CSD123 (Drosophila melanogaster, UniProt B7Z0E2 186-414); test: as above; details: protein: recombinant; tags: tag cleaved with TEV; label: 3' pCp-Cy5; stem loops
T4 sequence: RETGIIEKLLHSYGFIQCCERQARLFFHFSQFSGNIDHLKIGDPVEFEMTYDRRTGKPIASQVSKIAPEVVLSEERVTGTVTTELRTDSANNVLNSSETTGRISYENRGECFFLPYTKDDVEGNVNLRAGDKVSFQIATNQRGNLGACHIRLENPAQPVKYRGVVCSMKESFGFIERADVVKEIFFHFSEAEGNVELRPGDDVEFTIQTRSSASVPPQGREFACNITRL

[5] = biological target: T2, dUnr CSD789; test: NMR titration; deuterated protein; CSPs in all three domains, intermediate-to-slow exchange; EMSA: 20 mM HEPES/NaOH pH 7.5, 50 mM NaCl, 10% glycerol, 2 mM DTT, 1 h at 4 C, ~25 nM RNA; NMR: 20 mM NaP pH 6.5, 50 mM NaCl, 1 mM DTT (10 mM for CSD12), 10% D2O, 298 K; details: protein: recombinant; tags: tag cleaved with TEV
[6] = biological target: T5, dUnr CSD78 (Drosophila melanogaster, UniProt B7Z0E2 756-922); test: NMR titration; joint range given for CSD78 and CSD9; EMSA: 20 mM HEPES/NaOH pH 7.5, 50 mM NaCl, 10% glycerol, 2 mM DTT, 1 h at 4 C, ~25 nM RNA; NMR: 20 mM NaP pH 6.5, 50 mM NaCl, 1 mM DTT (10 mM for CSD12), 10% D2O, 298 K; details: protein: recombinant; tags: tag cleaved with TEV
T5 sequence: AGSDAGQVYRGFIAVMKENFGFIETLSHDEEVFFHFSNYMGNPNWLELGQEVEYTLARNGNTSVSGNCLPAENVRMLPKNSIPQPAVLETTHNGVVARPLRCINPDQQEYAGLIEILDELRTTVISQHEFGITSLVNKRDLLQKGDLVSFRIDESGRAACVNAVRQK

[7] = biological target: T6, dUnr CSD9 (Drosophila melanogaster, UniProt B7Z0E2 898-990); test: as above; details: protein: recombinant; tags: tag cleaved with TEV
T6 sequence: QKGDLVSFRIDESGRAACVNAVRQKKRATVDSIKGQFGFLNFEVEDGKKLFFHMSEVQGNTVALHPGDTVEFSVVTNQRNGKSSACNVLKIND

[8] = biological target: T7, dUnr ncCSD6 (Drosophila melanogaster, UniProt B7Z0E2 593-677); test: NMR titration; no CSPs; EMSA: 20 mM HEPES/NaOH pH 7.5, 50 mM NaCl, 10% glycerol, 2 mM DTT, 1 h at 4 C, ~25 nM RNA; NMR: 20 mM NaP pH 6.5, 50 mM NaCl, 1 mM DTT (10 mM for CSD12), 10% D2O, 298 K; details: protein: recombinant; tags: tag cleaved with TEV
T7 sequence: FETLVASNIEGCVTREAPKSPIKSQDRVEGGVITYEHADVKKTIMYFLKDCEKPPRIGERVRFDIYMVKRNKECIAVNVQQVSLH

[9] = biological target: T8, dUnr ncCSD8 (Drosophila melanogaster, UniProt B7Z0E2 841-922); test: as above; details: protein: recombinant; tags: tag cleaved with TEV
T8 sequence: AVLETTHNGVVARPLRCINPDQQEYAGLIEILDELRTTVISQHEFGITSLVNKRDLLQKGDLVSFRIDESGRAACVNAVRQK

B1: SL67 (roX2 lncRNA stem loops 6 and 7) (structured_RNA)
RNA: ACAAUAUGCAAUACAAUACAAUACAAGACAAAAAAAUGUGUCUUGGAACCAACAUUGUACAAGUCGCAAUGCAAACUGAAGUCUUAAAAGACGUGUAAAAUGUUGCAAAUUAAGCAAAUAUAUAUGCAUAUAUGGGUAACGUUUUACGCGCCUUAACCAGU
Binder B1 has a Kd [1] of 0.707 µM, a Kd [2] of 32 µM and a Kd [3] of 16 µM. For the same binder, the Kd [4] was 1.41 µM.

AAAAAAAAAAAAAAA (ssRNA) [A15-mer RNA]: binds [5].

For AAAAAAAUG (ssRNA) [9-mer RNA from roX2 SL6 loop], the Kd [6] was about 245 µM, the Kd [7] was about 245 µM and the binding result [8] was “no binding”. AAAAAAAUG (ssRNA) [9-mer RNA from roX2 SL6 loop]: no binding [9].
